Biological target: murine MBP::ob fusion protein (+Gln), construct pCZR90 (mouse)

Factor Xa cleavage of the MBP::ob fusion protein: 9%
Substance: Bovine Factor Xa (from UniProt P00743) (enzyme)

— US5827734
